{
  "source": "patent US20230331827A1",
  "about": "“POTASSIUM CHANNEL INHIBITORS” (priority 2017, published 2023)",
  "key": {"trypsin [1]": {"test_system": "trypsin", "assay": "Phage TRF binding assay on immobilised biotinylated trypsin (monoclonal phage ELISA)", "procedure": "Phage display technology facilitates isolation of binders to any given target from large combinatorial repertoires based on proteins and peptides that can be presented on the surface of filamentous phage^105. In order to isolate functional knottin-antibody fusions from the KnotBody libraries multiple rounds of phage display selections on trypsin (cognate antigen for the EETI-II donor) were carried out. Phage particles were prepared by rescuing KnotBody libraries using trypsin cleavable helper phage ^102,106Two rounds of phage display selections were performed on 10 µg/ml biotinylated trypsin immobilised on Streptavidin (for Round-1) or Neutravidin (for round-2) coated Maxisorp™ immunotubes (Thermo Scientific, Cat No. 444202). In both rounds of selection, phage libraries were pre-incubated with streptavidin coated paramagnetic beads (Thermo Fisher Scientific, Cat. No. 11205D). These beads were removed prior to the addition the phage to the antigen tubes to limit the streptavidin binders entering the selection. Polyclonal phage preparations from round-2 selection outputs were analysed for trypsin binding using a time resolved fluorescence (TRF) binding assay. In this assay, polyclonal phage binding to biotinylated trypsin immobilised on neutravidin (Thermo Fisher Scientific, Cat. No 31000) coated Maxisorp™ plates (Thermo Scientific, Cat. No. 437111) was detected using a mouse anti-M13 antibody (GE Healthcare, Cat. No. 27-9420-01) followed by europium conjugated anti-mouse antibody (Perkin Elmer, Cat. No. AD0124).\nIn order to identify monoclonal KnotBodies with desired binding characteristics, 94 individual clones derived from 2 rounds of selection using EETI-II CDR1 or CDR2 libraries were picked into 96 well culture plates and phage were prepared from each clone. Methods for screening by monoclonal phage ELISA are known in the art^107. […] Clones with >3x binding signal above background were picked as positive clones and sequenced to identify unique clones. 14 and 42 unique binders were identified from EETI-II CDR1 and EETI-II CDR2 libraries respectively (Table 1). 18 binders from the EETI-II CDR2 library and 3 binders from the EETI-II-CDR1 library were chosen for further characterisation based on their VL and linker sequence diversity. These binders were assigned new clone identification numbers (Table 2).\nThe trypsin binding capability of EETI-II is attributed to proline (Pro3) and arginine (Arg4) residues present in its loop1 (GCPRILMRC; SEQ ID NO: 68). […] Monoclonal phage was prepared from the 21 selected clones and their mutant equivalents. […] Replacement of the trypsin-binding residues of EETI-II abolished the ability of all KnotBody clones to bind to trypsin (Table 3). In order to confirm that the loss of trypsin binding was not due to reduced expression or display of pIII fusion phage was prepared from 11 (randomly chosen) KnotBodies and their GlyAla variants were analysed on a western blot using an antibody which recognises the product of gene 3 (pIII) using an anti-pIII antibody (MoBiTec GmbH) (FIG. 6).\nBovine antibodies have been described with natural ultra-long VH CDR3s containing a solvent exposed double stranded antiparallel sheet approximately 20 A° in length (referred to as the stalk) presenting a folded domain stabilised by 3 disulfide bonds (referred to as the Knob)^10. Zhang and colleagues have shown that the Knob domains of these cow ultra-long VH CDR3 antibodies (ULVC-Ab) can be replaced with other folded proteins such as erythropoietin^13. In this example, we assess the ability of a cow ULVC-Ab to present functional knottin fusions on phage in comparison with a KnotBody. In order to create a Knottin-cow UCLA fusion, the sequence between the first and the last cysteines of the knob region of the Cow ULVC-Ab BLV1H12 was replaced with the sequence of the trypsin binding knottin; EETI-II (EETI-II cow ULVC-Ab). A gene fragment encoding this construct was synthesised (Integrated DNA technologies, Table 21). […]"}, "trypsin [2]": {"test_system": "trypsin", "assay": "KnotBody Fab TRF binding assay on biotinylated trypsin", "procedure": "In order to confirm the trypsin binding ability of KnotBodies in Fab format, purified proteins were tested for binding to trypsin using a TRF binding assay. In this assay binding of KnotBody Fabs ([…]) to biotinylated trypsin (immobilised on streptavidin coated Maxisorp™ plates) was detected using a mouse anti-CH1 antibody followed by a europium conjugated anti-mouse antibody (Table 4). 7 KnotBodies (KB_A04, KB_A01, KB_A05, KB_A07, KB_A08, KB_A10, KB_A12) were chosen for crystallisation. DNA prepared for these clones were transfected into 500 ml HEK-293F cells as described before. Expressed proteins were purified using CaptureSelect IgG-CH1 affinity matrix. Purified proteins were initially subjected to crystallisation trials using commercially available crystallisation screens (Supplier). Well-defined crystals were readily obtained for KB_A12 and KB_A05. Crystallisation conditions for these two clones were further optimised and the following condition was used to generate diffraction quality crystals: 0.1 M MES pH=6.5, 25 %w/v PEG MME 2000 and 0.1 M Tris.Cl, 50% PEG MME, 10 mM NiCl2. Complete diffraction data was collected on these crystals at 100 K under liquid nitrogen stream. Collected data was processed using PROTEUM2 software (Bruker). The crystal structure of the knottin-fused Fab antibodies was resolved using molecular replacement technique^109 using Phenix software v 1.8.1-1168^110. Resulting structure was further refined using Phenix.Refine^111. The templates for molecular replacement were downloaded from PDB website (www.rcsb.org/pdb, PDB codes: 3G04 for light chain and 3QOS for heavy chain). KnotBody KB_A12 and KB_A05 sequences are given below. An additional AlaSer sequence is introduced at the N terminus of the light chain from the Nhe1 site used in cloning.\nIn order to compare the performance of the KnotBodies with short and long linkers, purified Fabs were tested for binding to trypsin by ELISA. In this assay binding of KnotBody Fabs (at 0.5 µg/ml) to biotinylated trypsin (5 µg/ml immobilised on streptavidin coated Maxisorp™ plates) was detected using a mouse anti-CH1 antibody (Hybridoma Reagent Laboratories) followed by a europium conjugated anti-mouse antibody (Perkin Elmer, Cat. No. AD0124). The trypsin binding capability of KB_A07 and KB_A12 KnotBodies were greatly diminished when the short selected linkers were replaced with long and flexible linkers (FIG. 22)."}},
  "data": [
    {"molecule": "KB_A05: EETI-II knottin fused into VL CDR2, D1A12 VH; trypsin binder (antibody, KB_A05 Heavy chain; KB_A05 Light chain) heavy: EVQLVESGGGLVRPGGSLRLSCAASGFTFSSYAMSWVRQAPGKGLEWVSAISGSGGSTYYADSVKGRFTISRDNTKNSLYLQMTSLRADDTAFYYCVDFGPGYGTGWFDYWGPGTLVTVSSASTKGPSVFPLAPSSKSTSGGTAALGCLVKDYFPEPVTVSWNSGALTSGVHTFPAVLQSSGLYSLSSVVTVPSSSLGTQTYICNVNHKPSNTKVDKKVEPKSC light: QSVLTQPPSVSEAPRQRVTITCSGSSSNIGNNAVNWYQQLPGKAPKLLIYAADKCPRILMRCKQDSDCLAGCVCGPNGFCGGGSGIPERFSGSKSGTSASLAISGLRSEDEADYYCATWDDNLNGVVFGGGTKLTVLGQPAAAPSVTLFPPSSEELQANKATLVCLISDFYPGAVTVAWKADSSPVKAGVETTTPSKQSNNKYAASSYLSLTPEQWKSHKSYSCQVTHEGSTVEKTVAPTECS", "values": [
      {"measurement": "% reduction in binding signal", "setting": "trypsin [1]; GlyAla mutant (Pro3, Arg4 of EETI-II substituted) versus the clone, monoclonal phage", "result": 100, "unit": "%"},
      {"measurement": "Tryspin binding signal (FU)", "setting": "trypsin [1]; monoclonal phage supernatant, biotinylated trypsin on neutravidin plates", "result": 121458, "unit": "FU"},
      {"measurement": "TRF signal for 0.6 ug/mL Fab", "setting": "trypsin [2]; Fab 0.6 ug/mL", "result": 46706},
      {"measurement": "TRF signal for 2.4 ug/mL Fab", "setting": "trypsin [2]; Fab 2.4 ug/mL", "result": 65386},
      {"measurement": "TRF signal for 10 ug/mL Fab", "setting": "trypsin [2]; Fab 10 ug/mL", "result": 217918}
    ]}
  ]
}
